Tested on: T1, His-NrtR (Pseudomonas aeruginosa PAK), ORF:d24b93ef
T1 sequence: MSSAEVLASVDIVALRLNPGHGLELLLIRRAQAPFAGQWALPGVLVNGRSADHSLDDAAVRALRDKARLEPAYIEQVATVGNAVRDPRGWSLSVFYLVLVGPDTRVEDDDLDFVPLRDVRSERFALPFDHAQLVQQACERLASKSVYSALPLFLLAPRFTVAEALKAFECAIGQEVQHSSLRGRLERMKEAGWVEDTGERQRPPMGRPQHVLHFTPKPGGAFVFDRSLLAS
Experiment: EMSA
Conditions: 10 mM Tris, 1 mM DTT, pH 7.5, […]

Sequence	binding
AGAAAATACCTTCCACTGCGAAATTTTGTAGTACAAGTGCTTGACGACTTATTTCACGTGATGAATTATGTACCCACATTCAGCCCCAACCCGTCAAGCGGAGGCTTCC (double strand) [nadD2 promoter fragment]	binds
CAGGAGTGATATTAGCGATTCCCAGTGCTCCCGCAACCTGCCAGAAAACCCAGCGAAGCTTCTTCGGCAGCCATTTTAGAAAAATATATTCCTTTAATTTCAATAAGTTACTTAAATTCACCGAGCGTTTTTGGCAAACCTCCCGGGCATTTATCTACTTAGGCTCACACGCCGTGTAAGTTAATGCTTACAAGAGCAGACACAAAAAACCCGGCGAACGCCGGGTCTTCAGTGGGTCTAAGGTTTTCCG (double strand) [rsmZ promoter fragment]	binds
CCGCGTTGCCGACCGTGGCCACCTGCTCGATGTAGGCCGGCTCCAGCCGCGCCTTGTCGCGCAGGGCGCGCACCGCCGCGTCGTCGAGGCTGTGGTCGGCGCTGCGGCCGTTGACCAGCACGCCGGGCAAGGCCCACTGGCCGGCGAAAGGCGCCTGGGCGCGGCGGATCAGCAACA (double strand) [nrtR coding fragment]	no binding
GCTGGGAAGGCTCGCGATGATGAGGGGACTGGCCACTGTAGCGGGCCCGGCGCAGATCATCTTGACGCACGGCAAGCTCCCGGCGGCTGGGTGTTGCCGTCGGTCCGGCGAGCGGAACTATTACAGCGTGTAAGCCAAGGCTTACAAACGGCGGTGGTTTTGGCTGCTTTCTCCCCCTCGCGGAGATGCGTAATCTTCAAACCGTCAGGACATTGCGCAGGAAGCGCCAAAGACAATACGG (double strand) [rsmY promoter fragment]	binds

Source: article PMC8865458
